Experimental data as given in patent US20230312724A1 (KADMON, published 2023).
Values belong to the binder of their own block, whether it stands above or below them.

Legend:
[1] = target: T1, IgV domain of human B7-H4-Fc (human); assay: ELISA, coated hB7-H4 IgV domain
T1 construct: also called hB7-H4 IgV domain

[2] = target: T2, mB7-H4 (soluble mouse B7-H4, construct not named) (mouse, UniProt Q7TSP5 25-257, limits assumed); assay: SPR (Biacore)
T2 sequence: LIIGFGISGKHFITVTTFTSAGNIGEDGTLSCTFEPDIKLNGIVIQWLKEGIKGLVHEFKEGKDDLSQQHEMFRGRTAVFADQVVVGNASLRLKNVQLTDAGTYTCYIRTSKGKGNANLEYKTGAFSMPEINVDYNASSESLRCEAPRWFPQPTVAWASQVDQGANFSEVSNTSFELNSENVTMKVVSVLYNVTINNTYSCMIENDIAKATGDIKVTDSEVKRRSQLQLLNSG
Method in brief: (§1)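 Kinetic constants came from a 1:1 Langmuir fit of binding at 25 °C in HBS-EP, pH 7.4. Analyte (100 nM to 0.1 nM) flowed for 180 s, then dissociated for 1000 or 1200 s, over amine-coupled human B7-H4-Fc, human B7-H4-his or mouse B7-H4-Fc surfaces at 50-100 RU.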

[3] = target: T3, hB7-H4 (soluble human B7-H4, construct not named) (human, UniProt Q7Z7D3 25-259, limits assumed); assay: SPR (Biacore)
T3 construct: also called soluble hB7-H4
T3 sequence: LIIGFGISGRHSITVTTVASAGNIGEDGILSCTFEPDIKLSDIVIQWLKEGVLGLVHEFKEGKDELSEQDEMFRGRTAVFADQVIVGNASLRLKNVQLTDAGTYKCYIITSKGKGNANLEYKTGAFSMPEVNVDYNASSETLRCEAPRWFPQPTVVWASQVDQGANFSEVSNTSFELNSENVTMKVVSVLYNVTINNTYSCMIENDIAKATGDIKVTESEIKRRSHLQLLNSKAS
Method in brief: as §1

[4] = target: T4, human B7-H4 expressed on cells (human, UniProt Q7Z7D3 25-282); assay: flow cytometry on SK-BR-3 cells
T4 construct: Transfected CHO cells or tumor cell lines that carry hB7-H4; also called cellular hB7-H4
T4 sequence: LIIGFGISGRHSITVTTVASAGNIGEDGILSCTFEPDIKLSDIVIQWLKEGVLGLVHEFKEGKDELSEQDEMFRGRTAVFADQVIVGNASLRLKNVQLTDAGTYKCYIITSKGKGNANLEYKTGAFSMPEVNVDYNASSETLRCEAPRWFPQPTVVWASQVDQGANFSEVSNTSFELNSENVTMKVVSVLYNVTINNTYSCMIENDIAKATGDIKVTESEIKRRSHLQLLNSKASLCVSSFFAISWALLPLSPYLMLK
Method: Cells were harvested, washed once, and then re-suspended to the concentration of 1×10⁶ cells/ml in ice cold FACS Buffer. 25 μl of cell suspension was added to each well of a 96-well round-bottom microliter plate. Serially diluted antibodies or fusion proteins were added to each well and incubated for 1 hour at 4° C. Cells were washed three times by centrifugation at 1500 rpm for 5 minutes, and then stained with secondary antibody (1:200 dilution) for 30 min at 4° C. in the dark. Cells were washed once, re-suspended in 100 μl PBS buffer and then analyzed using Guava Flow Cytometry EasyCyte system.

[5] = target: T3, hB7-H4 (soluble human B7-H4, construct …); assay: ELISA, hB7-H4
Method in brief: (§2)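 EC50 values come from fitted OD450-versus-antibody-concentration curves. Antibody dilution series bound for 1-1.5 h at RT to plates coated overnight at 4° C with about 1-2 μg/ml human or mouse B7-H4-Fc or His-tagged protein, milk-blocked. Detection used HRP-conjugated anti-hFab with TMB substrate and an acid stop.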

mouse B7-H4-Fc [6] = target: T5, mouse B7-H4-Fc (mouse; human); assay: ELISA, coated mB7-H4-Fc
T5 construct: also called mB7-H4-Fc; mB7-H4-hFc
T5 sequence (chain, as listed by the source): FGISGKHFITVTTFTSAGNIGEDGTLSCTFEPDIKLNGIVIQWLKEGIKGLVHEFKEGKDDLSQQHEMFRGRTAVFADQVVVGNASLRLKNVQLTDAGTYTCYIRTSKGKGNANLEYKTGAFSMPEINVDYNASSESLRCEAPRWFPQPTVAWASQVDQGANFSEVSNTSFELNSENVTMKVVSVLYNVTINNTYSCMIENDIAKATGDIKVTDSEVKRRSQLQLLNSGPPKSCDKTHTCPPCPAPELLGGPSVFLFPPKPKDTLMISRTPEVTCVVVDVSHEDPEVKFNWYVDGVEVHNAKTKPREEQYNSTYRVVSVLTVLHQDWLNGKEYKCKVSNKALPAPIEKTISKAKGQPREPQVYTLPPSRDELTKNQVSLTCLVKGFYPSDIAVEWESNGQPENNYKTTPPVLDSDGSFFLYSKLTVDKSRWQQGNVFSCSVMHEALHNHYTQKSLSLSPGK
Method in brief: as §2

human B7-H4-Fc = target: T6, human B7-H4-Fc (human); assay: ELISA, coated hB7-H4-Fc
T6 construct: also called hB7-H4-Fc; hB7-H4 Fc
T6 sequence (chain, as listed by the source): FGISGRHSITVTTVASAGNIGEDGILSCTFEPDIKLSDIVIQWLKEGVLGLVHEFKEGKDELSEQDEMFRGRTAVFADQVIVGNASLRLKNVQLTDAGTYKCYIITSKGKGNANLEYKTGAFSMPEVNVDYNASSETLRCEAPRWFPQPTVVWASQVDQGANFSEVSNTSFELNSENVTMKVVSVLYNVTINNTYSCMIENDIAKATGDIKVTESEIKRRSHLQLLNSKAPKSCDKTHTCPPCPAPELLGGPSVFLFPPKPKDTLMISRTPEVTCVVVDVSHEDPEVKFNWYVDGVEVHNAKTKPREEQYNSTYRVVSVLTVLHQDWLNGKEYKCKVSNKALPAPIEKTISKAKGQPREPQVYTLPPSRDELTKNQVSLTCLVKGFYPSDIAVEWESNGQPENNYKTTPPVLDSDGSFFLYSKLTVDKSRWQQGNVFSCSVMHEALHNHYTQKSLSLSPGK
Method in brief: as §2

mouse B7-H4-his = target: T7, mouse B7-H4-his (mouse, UniProt Q7TSP5 25-257); assay: ELISA on coated mB7-H4-his
T7 construct: also called mB7-H4-his; mB7-H4-His; not shown: his tag
T7 sequence: T2 sequence
Method: (§3) About 1-2 μg/ml of human or mouse B7-H4-Fc (or his-tagged) was immobilized on ELISA plates (Immuno 2HB, Thermo scientific, cat #3455) at 4° C. overnight. After blocking the plates with 3% PBS+milk, serial diluted antibodies were added to the blocked plates and incubated at RT for 1-1.5 h. After washing the plates with PBS-T (0.05%), horse radish peroxidase (HRP)-conjugated antibody targeting the hFab was added to the plate. Signals were developed by adding 3,3′,5,5′-Tetramethylbenzidine (TMB (followed 1N of H₂SO₄ to stop the reaction. The OD at 450 nm was read by ELISA plate reader (Infinite M1000 from TECAN). GraphPad from Prism was used to plot OD450 vs. antibody concentration curve and to calculate the EC50 values.

[7] = target: T1, IgV domain of human B7-H4-Fc; assay: ELISA, coated hB7-H4 IgV domain; remark: listed apart in the source
Method: ELISA experiments were performed to determine binding to hB7-H4-Fc (FIG. 5A), hB7-H4-his (FIG. 5B), mB7-H4-Fc domain (FIG. 5C), hB7-H4 IgV domain (FIG. 5D), and hB7-H4 IgC domain (FIG. 5E). Flow cytrometry experiments were performed to determine binding to CHO cells expressing hB7-H4 (FIG. 5F) or mB7-H4 (FIG. 5G). […] A cross-reactive IgV binding antibody and an IgC binding antibody were used as controls.
as §3

mouse B7-H4-Fc [8] = target: T5, mouse B7-H4-Fc; assay: ELISA on coated mB7-H4-Fc
Method: as §3

[9] = target: T1, IgV domain of human B7-H4-Fc; assay: ELISA on coated IgV domain of hB7-H4
Method: as §3

T1 sequence (chain, as listed by the source): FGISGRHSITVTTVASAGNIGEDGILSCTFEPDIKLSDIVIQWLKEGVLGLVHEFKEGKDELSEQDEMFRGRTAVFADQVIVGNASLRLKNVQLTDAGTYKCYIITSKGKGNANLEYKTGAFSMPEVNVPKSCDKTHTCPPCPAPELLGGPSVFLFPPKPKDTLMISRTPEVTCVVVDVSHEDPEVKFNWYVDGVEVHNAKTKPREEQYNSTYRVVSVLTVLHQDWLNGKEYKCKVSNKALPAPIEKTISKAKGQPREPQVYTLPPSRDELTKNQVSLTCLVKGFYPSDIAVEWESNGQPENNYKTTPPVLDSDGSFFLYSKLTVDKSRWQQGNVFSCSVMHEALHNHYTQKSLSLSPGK

EC50 (read off the curve) [1]: ~0.1 nM | Kd [2]: 0.0998 nM | Kd [3]: 0.303 nM | EC50 (read off the curve) [4]: ~2 nM | EC50 [5]: 0.068 nM
B1: 39A11/57G8 (antibody, human IgG1, V domains shown)
VH: EVQLLESGGGLVQPGGSLRLSCAASGFTFSSYGMHWVRQAPGKGLEWVASISSSSGYIYYADSVKGRFTISRDNSKNTLYLQMNSLRAEDTAVYYCARASSGMDVWGQGTTVTVSS
VL: DIQMTQSPSSLSASVGDRVTITCRASQSIRSYLNWYQQKPGKAPKLLIYYASSLQSGVPSRFSGSGSGTDFTLTISSLQPEDFATYYCQQYYSTPLTFGQGTKVEIK
notes: 39A11 VH with 57G8 VL

EC50 (read off the curve) (mouse B7-H4-Fc [6]): ~0.1 nM | EC50 (read off the curve) (human B7-H4-Fc): ~0.1 nM | EC50 (read off the curve) (mouse B7-H4-his): ~0.2 nM | EC50 (read off the curve) [7]: ~0.2 nM | EC50 (read off the curve) (mouse B7-H4-Fc [8]): ~0.1 nM | EC50 (read off the curve) [9]: ~0.2 nM
B2: Control antibody 1 (antibody 20502 described in US20190085080A1) (antibody, V domains shown)
VH: QLQLQESGPGLVKPSETLSLTCTVSGGSIKSGSYYWGWIRQPPGKGLEWIGNIYYSGSTYYNPSLRSRVTISVDTSKNQFSLKLSSVTAADTAVYYCAREGSYPNQFDPWGQGTLVTVSS
VL: EIVMTQSPATLSVSPGERATLSCRASQSVSSNLAWYQQKPGQAPRLLIYGASTRATGIPARFSGSGSGTEFTLTISSLQSEDFAVYYCQQYHSFPFTFGGGTKVEIK
notes: also called (+) control Ab1; (+) Ab1
